Data as given in patent publication EP4663654A1 (Hangzhou Sciwind Biosciences Co., Ltd., dated 2025).
Starred links: 1 amine or outer side, 2 acyl side, 3 side chain; linkers in the order of their positions; H or OH if unused. Non-standard residues stand in square brackets, D forms with d. Primed or numbered codes have the meaning given here. *: point of attachment. C20 diacid = O=C(O)CCCCCCCCCCCCCCCCCCC(=O)*; γGlu = O=C(O)[C@H](CCC(=O)[*:2])N[*:1]; βAsp = O=C(O)[C@H](CC(=O)[*:2])N[*:1]; Hyp = O=C(O)[C@@H]1C[C@@H](O)CN1; Inp′ = not defined here; Trx′ = not defined here; AEEA = NCCOCCOCC(=O)O

T1: human amylin receptor (AMY3) on CHO-K1/Ga15/AMY3 amylin receptor/CRE-luc cells (human, UniProt P30988 25-474; O60896 24-148)
T1 sequence (looked up) 1: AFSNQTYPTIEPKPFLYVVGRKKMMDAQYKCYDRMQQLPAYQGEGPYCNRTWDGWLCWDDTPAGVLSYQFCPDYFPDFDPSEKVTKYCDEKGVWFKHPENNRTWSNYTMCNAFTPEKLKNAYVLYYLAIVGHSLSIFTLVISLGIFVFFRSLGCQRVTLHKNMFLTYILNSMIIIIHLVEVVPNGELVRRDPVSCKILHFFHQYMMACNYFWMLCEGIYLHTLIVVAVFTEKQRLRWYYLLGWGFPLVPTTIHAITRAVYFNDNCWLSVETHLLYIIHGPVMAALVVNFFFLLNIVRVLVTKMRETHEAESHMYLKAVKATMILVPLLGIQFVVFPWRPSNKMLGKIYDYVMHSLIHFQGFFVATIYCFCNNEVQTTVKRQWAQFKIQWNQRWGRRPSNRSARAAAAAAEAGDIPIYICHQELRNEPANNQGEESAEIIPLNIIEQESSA
T1 sequence (looked up) 2: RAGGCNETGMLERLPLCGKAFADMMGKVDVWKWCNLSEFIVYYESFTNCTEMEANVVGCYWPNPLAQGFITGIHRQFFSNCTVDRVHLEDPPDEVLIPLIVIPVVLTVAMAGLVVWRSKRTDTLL


Target: T1, human amylin receptor (AMY3) on …
Assay: cell-based or functional assay

Binder | EC50/nM, CRE-luciferase reporter in amylin receptor/CRE-luc CHO cells [nM] | Relative activity (the EC50 ratio of Cagrilintide to the compound) [%]
{C20 diacid-Inp′}-ASQLSTAATQRLADFLRHFTDRDRDILPPTNVGSNTP-NH2 [polypeptide derivative M15] | 0.03 | 81
{C20 diacid}-DASQLSTAATQRLADFLRHFTDRDRDILPPTNVGSNTP-NH2 (SMILES CC[C@H](C)[C@H](NC(=O)[C@H](CC(=O)O)NC(=O)[C@H](CCCNC(=N)N)NC(=O)[C@H](CC(=O)O)NC(=O)[C@H](CCCNC(=N)N)NC(=O)[C@H](CC(=O)O)NC(=O)[C@@H](NC(=O)[C@H](Cc1ccccc1)NC(=O)[C@H](Cc1c[nH]cn1)NC(=O)[C@H](CCCNC(=N)N)NC(=O)[C@H](CC(C)C)NC(=O)[C@H](Cc1ccccc1)NC(=O)[C@H](CC(=O)O)NC(=O)[C@H](C)NC(=O)[C@H](CC(C)C)NC(=O)[C@H](CCCNC(=N)N)NC(=O)[C@H](CCC(N)=O)NC(=O)[C@@H](NC(=O)[C@H](C)NC(=O)[C@H](C)NC(=O)[C@@H](NC(=O)[C@H](CO)NC(=O)[C@H](CC(C)C)NC(=O)[C@H](CCC(N)=O)NC(=O)[C@H](CO)NC(=O)[C@H](C)NC(=O)[C@H](CC(=O)O)NC(=O)CCCCCCCCCCCCCCCCCCC(=O)O)[C@@H](C)O)[C@@H](C)O)[C@@H](C)O)C(=O)N[C@@H](CC(C)C)C(=O)N1CCC[C@H]1C(=O)N1CCC[C@H]1C(=O)N[C@H](C(=O)N[C@@H](CC(N)=O)C(=O)N[C@H](C(=O)NCC(=O)N[C@@H](CO)C(=O)N[C@@H](CC(N)=O)C(=O)N[C@H](C(=O)N1CCC[C@H]1C(N)=O)[C@@H](C)O)C(C)C)[C@@H](C)O) [polypeptide derivative M13] | 0.034 | 78
{C20 diacid-βAsp-AEEA-AEEA}-ASQLSTAATQRLADFLRHFTDRDRDILPPTNVGSNTP-NH2 (SMILES CC[C@H](C)[C@H](NC(=O)[C@H](CC(=O)O)NC(=O)[C@H](CCCNC(=N)N)NC(=O)[C@H](CC(=O)O)NC(=O)[C@H](CCCNC(=N)N)NC(=O)[C@H](CC(=O)O)NC(=O)[C@@H](NC(=O)[C@H](Cc1ccccc1)NC(=O)[C@H](Cc1c[nH]cn1)NC(=O)[C@H](CCCNC(=N)N)NC(=O)[C@H](CC(C)C)NC(=O)[C@H](Cc1ccccc1)NC(=O)[C@H](CC(=O)O)NC(=O)[C@H](C)NC(=O)[C@H](CC(C)C)NC(=O)[C@H](CCCNC(=N)N)NC(=O)[C@H](CCC(N)=O)NC(=O)[C@@H](NC(=O)[C@H](C)NC(=O)[C@H](C)NC(=O)[C@@H](NC(=O)[C@H](CO)NC(=O)[C@H](CC(C)C)NC(=O)[C@H](CCC(N)=O)NC(=O)[C@H](CO)NC(=O)[C@H](C)NC(=O)COCCOCCNC(=O)COCCOCCNC(=O)C[C@H](NC(=O)CCCCCCCCCCCCCCCCCCC(=O)O)C(=O)O)[C@@H](C)O)[C@@H](C)O)[C@@H](C)O)C(=O)N[C@@H](CC(C)C)C(=O)N1CCC[C@H]1C(=O)N1CCC[C@H]1C(=O)N[C@H](C(=O)N[C@@H](CC(N)=O)C(=O)N[C@H](C(=O)NCC(=O)N[C@@H](CO)C(=O)N[C@@H](CC(N)=O)C(=O)N[C@H](C(=O)N1CCC[C@H]1C(N)=O)[C@@H](C)O)C(C)C)[C@@H](C)O) [polypeptide derivative M18] | 0.026 | 110
{C20 diacid-γGlu-AEEA-AEEA}-ASQLSTAATQRLADFLRHFTDRDRDILPPTNVGSNTP-NH2 (SMILES CC[C@H](C)[C@H](NC(=O)[C@H](CC(=O)O)NC(=O)[C@H](CCCNC(=N)N)NC(=O)[C@H](CC(=O)O)NC(=O)[C@H](CCCNC(=N)N)NC(=O)[C@H](CC(=O)O)NC(=O)[C@@H](NC(=O)[C@H](Cc1ccccc1)NC(=O)[C@H](Cc1c[nH]cn1)NC(=O)[C@H](CCCNC(=N)N)NC(=O)[C@H](CC(C)C)NC(=O)[C@H](Cc1ccccc1)NC(=O)[C@H](CC(=O)O)NC(=O)[C@H](C)NC(=O)[C@H](CC(C)C)NC(=O)[C@H](CCCNC(=N)N)NC(=O)[C@H](CCC(N)=O)NC(=O)[C@@H](NC(=O)[C@H](C)NC(=O)[C@H](C)NC(=O)[C@@H](NC(=O)[C@H](CO)NC(=O)[C@H](CC(C)C)NC(=O)[C@H](CCC(N)=O)NC(=O)[C@H](CO)NC(=O)[C@H](C)NC(=O)COCCOCCNC(=O)COCCOCCNC(=O)CC[C@H](NC(=O)CCCCCCCCCCCCCCCCCCC(=O)O)C(=O)O)[C@@H](C)O)[C@@H](C)O)[C@@H](C)O)C(=O)N[C@@H](CC(C)C)C(=O)N1CCC[C@H]1C(=O)N1CCC[C@H]1C(=O)N[C@H](C(=O)N[C@@H](CC(N)=O)C(=O)N[C@H](C(=O)NCC(=O)N[C@@H](CO)C(=O)N[C@@H](CC(N)=O)C(=O)N[C@H](C(=O)N1CCC[C@H]1C(N)=O)[C@@H](C)O)C(C)C)[C@@H](C)O) [polypeptide derivative M16] | 0.042 | 58
{C20 diacid-γGlu}-ASQLSTAVLGRLADFLRHSSNNLKPILPPTNVGSNT[Hyp]-NH2 (SMILES CC[C@H](C)[C@H](NC(=O)[C@@H]1CCCN1C(=O)[C@H](CCCCN)NC(=O)[C@H](CC(C)C)NC(=O)[C@H](CC(N)=O)NC(=O)[C@H](CC(N)=O)NC(=O)[C@H](CO)NC(=O)[C@H](CO)NC(=O)[C@H](Cc1c[nH]cn1)NC(=O)[C@H](CCCNC(=N)N)NC(=O)[C@H](CC(C)C)NC(=O)[C@H](Cc1ccccc1)NC(=O)[C@H](CC(=O)O)NC(=O)[C@H](C)NC(=O)[C@H](CC(C)C)NC(=O)[C@H](CCCNC(=N)N)NC(=O)CNC(=O)[C@H](CC(C)C)NC(=O)[C@@H](NC(=O)[C@H](C)NC(=O)[C@@H](NC(=O)[C@H](CO)NC(=O)[C@H](CC(C)C)NC(=O)[C@H](CCC(N)=O)NC(=O)[C@H](CO)NC(=O)[C@H](C)NC(=O)CC[C@H](NC(=O)CCCCCCCCCCCCCCCCCCC(=O)O)C(=O)O)[C@@H](C)O)C(C)C)C(=O)N[C@@H](CC(C)C)C(=O)N1CCC[C@H]1C(=O)N1CCC[C@H]1C(=O)N[C@H](C(=O)N[C@@H](CC(N)=O)C(=O)N[C@H](C(=O)NCC(=O)N[C@@H](CO)C(=O)N[C@@H](CC(N)=O)C(=O)N[C@H](C(=O)N1C[C@H](O)C[C@H]1C(N)=O)[C@@H](C)O)C(C)C)[C@@H](C)O) [polypeptide derivative M2] | 0.038 | 68
{C20 diacid-Trx′}-ASQLSTAATQRLADFLRHFTDRDRDILPPTNVGSNTP-NH2 (reading uncertain) [polypeptide derivative M14] | 0.018 | 136
{C20 diacid}-E[AEEA][AEEA]ASQLSTAATQRLADFLRHFTDRDRDILPPTNVGSNTP-NH2 (SMILES CC[C@H](C)[C@H](NC(=O)[C@H](CC(=O)O)NC(=O)[C@H](CCCNC(=N)N)NC(=O)[C@H](CC(=O)O)NC(=O)[C@H](CCCNC(=N)N)NC(=O)[C@H](CC(=O)O)NC(=O)[C@@H](NC(=O)[C@H](Cc1ccccc1)NC(=O)[C@H](Cc1c[nH]cn1)NC(=O)[C@H](CCCNC(=N)N)NC(=O)[C@H](CC(C)C)NC(=O)[C@H](Cc1ccccc1)NC(=O)[C@H](CC(=O)O)NC(=O)[C@H](C)NC(=O)[C@H](CC(C)C)NC(=O)[C@H](CCCNC(=N)N)NC(=O)[C@H](CCC(N)=O)NC(=O)[C@@H](NC(=O)[C@H](C)NC(=O)[C@H](C)NC(=O)[C@@H](NC(=O)[C@H](CO)NC(=O)[C@H](CC(C)C)NC(=O)[C@H](CCC(N)=O)NC(=O)[C@H](CO)NC(=O)[C@H](C)NC(=O)COCCOCCNC(=O)COCCOCCNC(=O)[C@H](CCC(=O)O)NC(=O)CCCCCCCCCCCCCCCCCCC(=O)O)[C@@H](C)O)[C@@H](C)O)[C@@H](C)O)C(=O)N[C@@H](CC(C)C)C(=O)N1CCC[C@H]1C(=O)N1CCC[C@H]1C(=O)N[C@H](C(=O)N[C@@H](CC(N)=O)C(=O)N[C@H](C(=O)NCC(=O)N[C@@H](CO)C(=O)N[C@@H](CC(N)=O)C(=O)N[C@H](C(=O)N1CCC[C@H]1C(N)=O)[C@@H](C)O)C(C)C)[C@@H](C)O) [polypeptide derivative M17] | 0.026 | 94
